Results: PMC6881253 (2019)

Molecular target: N-terminally His6-tagged human PCNA (proliferating cell nuclear antigen) (human, UniProt P12004 1-261)
Experiment: ITC

Chain of N-terminally His6-tagged human PCNA (proliferating cell nuclear antigen) (P12004 whole entry): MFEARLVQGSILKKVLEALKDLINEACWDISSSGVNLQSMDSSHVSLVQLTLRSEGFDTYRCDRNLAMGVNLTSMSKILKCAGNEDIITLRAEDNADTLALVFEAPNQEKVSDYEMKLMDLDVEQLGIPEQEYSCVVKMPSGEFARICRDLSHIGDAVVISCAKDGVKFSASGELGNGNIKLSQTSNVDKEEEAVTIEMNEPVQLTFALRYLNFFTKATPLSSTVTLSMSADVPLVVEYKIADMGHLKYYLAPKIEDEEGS

Binder | Kd
Ac-RKRRQTSMTDFYHSESSL-NH2 [S2, mutant variant of p21^140–157 (Ac-RKRRQTSMTDFYHSESSL-NH2)] | 0.3 µM
Ac-SESSQTSMTDFYHSKRRL-NH2 [S1, mutant variant of p21^140–157 (Ac-SESSQTSMTDFYHSKRRL-NH2)] | 8.3 µM
Ac-SESSQTSMTDFYHSESSL-NH2 [D1.2, mutant variant of p21^140–157 (Ac-SESSQTSMTDFYHSESSL-NH2)] | 40 µM
